Results on three molecules are retold here after patent US5776725, “Recombinant production of glucagon receptors” (ZymoGenetics, Inc., dated 1998).

Assay [1] addresses rat glucagon receptor encoded by plasmid pLJ4 (rat).
Assay [2] has the same target. This is another data set of the same source.
For assay [3] the target is unchanged. This is another data set of the same source.
Assay [4] shares this target. The source holds these as a separate data set.
The target of assay [5] is glucagon receptors of rat liver membrane preparations (rat) (UniProt P30082). As to the kind of experiment: Scatchard analysis of 125I-glucagon binding in competition with unlabeled glucagon, rat liver membranes.
Assay [6] addresses rat glucagon receptor encoded by plasmid pLJ4 (rat). The experiment in a line: Scatchard analysis of 125I-glucagon binding in competition with unlabeled glucagon, membranes of pLJ4 BHK transfectants.
The target in assay [7] is human glucagon receptor encoded by plasmid pLJ6' (human). As to the kind of experiment: in situ 125I-glucagon binding with emulsion autoradiography on pLJ6'-transfected COS 7 cells.
Assay [8] concerns the target T1, bovine parathyroid hormone (PTH) (Sigma) (bovine, UniProt P01268).
T1 sequence (peptide): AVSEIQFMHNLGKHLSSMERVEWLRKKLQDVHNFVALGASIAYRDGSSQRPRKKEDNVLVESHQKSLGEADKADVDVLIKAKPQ
The experiment in a line: competition with 125I-glucagon, membranes of pLJ4 BHK transfectants. The method, then:
The binding reaction was initiated by the addition of 20 µl of a membrane preparation to the reaction tubes. The reactions were incubated for 30 minutes at 30° C. The membranes were pelleted by centrifugation in a microfuge at high speed for 10 minutes at 4° C. The supernatants from each sample were aspirated, and the pellets were counted.

Bounds are passed on as bounds.

glucagon (ligand) registered a cAMP levels (Amersham SPA kit) in assay [1] of 5 fold. Further, the fold induction of luciferase (CRE-luciferase) in assay [2] was in the range of 6 to 10 fold. In assay [3], this molecule registered an ED50 of cAMP induction of 0.25 nM and an induction of cAMP levels (scintillation proximity radioimmunoassay) of 140 fold. Also, the intracellular calcium concentration (fura-2 photoimaging) in assay [4] was 400 nM. This molecule had a Kd in assay [5] of 49 nM. In assay [6], the Kd came out at 50 nM.

With “125I-glucagon (Amersham receptor grade) (ligand)”, the percent of transfected cells that bound glucagon in assay [7] was > 50%.

B1: rat glucagon receptor encoded by plasmid pLJ4 (receptor)
chain: AQVMDFLFEKWKLYSDQCHHNLSLLPPPTELVCNRTFDKYSCWPDTPPNTTANISCPWYLPWYHKVQHRLVFKRCGPDGQWVRGPRGQSWRDASQCQMDDDEIEVQKGVAKMYSSYQVMYTVGYSLSLGALLLALVILLGLRKLHCTRNYIHGNLFASFVLKAGSVLVIDWLLKTRYSQKIGDDLSVSVWLSDGAVAGCRVATVIMQYGIIANYCWLLVEGVYLYSLLSITTFSEKSFFSLYLCIGWGSPLLFVIPWVVVKCLFENVQCWTSNDNMGFWWILRIPVLLAILINFFIFVRIIHLLVAKLRAHQMHYADYKFRLARSTLTLIPLLGVHEVVFAFVTDEHAQGTLRSTKLFFDLFFSSFQGLLVAVLYCFLNKEVQAELLRRWRRWQEGKALQEERMASSHGSHMAPAGTCHGDPCEKLQLMSAGSSSGTGCEPSAKTSLASSLPRLADSPT
Regarding B1, the binding result in assay [8] is listed as “no binding (tested: 1 µM)”.

As usually defined, the Kd is the concentration at which binding is half-saturated. Read a low Kd as a tighter complex.
